This note sets out measurements from US20240417458A1 (DISC MEDICINE, published 2024).

In assay [1] the target is T1, soluble human RGMc (human, UniProt Q6ZVN8 36-400).
T1 construct: also called huRGMc; soluble hRGMc
T1 sequence: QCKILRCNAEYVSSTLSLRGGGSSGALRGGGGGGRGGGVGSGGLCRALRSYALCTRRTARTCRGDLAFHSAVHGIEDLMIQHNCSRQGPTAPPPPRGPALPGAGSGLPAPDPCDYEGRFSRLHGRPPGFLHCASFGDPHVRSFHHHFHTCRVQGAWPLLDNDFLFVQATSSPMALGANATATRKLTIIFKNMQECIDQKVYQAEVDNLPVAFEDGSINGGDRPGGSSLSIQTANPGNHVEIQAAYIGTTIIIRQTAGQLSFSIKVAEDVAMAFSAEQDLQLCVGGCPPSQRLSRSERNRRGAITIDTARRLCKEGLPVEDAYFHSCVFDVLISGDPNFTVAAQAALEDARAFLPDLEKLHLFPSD
The assay is described as follows: SPR; method not named in Example 2.

The target in assay [2] is T2, soluble human RGMa (human, UniProt Q96B86 48-422, limits assumed).
T2 construct: Soluble antigen in BIAcore; also called huRGMa; repulsive guidance molecule A
T2 sequence (looked up): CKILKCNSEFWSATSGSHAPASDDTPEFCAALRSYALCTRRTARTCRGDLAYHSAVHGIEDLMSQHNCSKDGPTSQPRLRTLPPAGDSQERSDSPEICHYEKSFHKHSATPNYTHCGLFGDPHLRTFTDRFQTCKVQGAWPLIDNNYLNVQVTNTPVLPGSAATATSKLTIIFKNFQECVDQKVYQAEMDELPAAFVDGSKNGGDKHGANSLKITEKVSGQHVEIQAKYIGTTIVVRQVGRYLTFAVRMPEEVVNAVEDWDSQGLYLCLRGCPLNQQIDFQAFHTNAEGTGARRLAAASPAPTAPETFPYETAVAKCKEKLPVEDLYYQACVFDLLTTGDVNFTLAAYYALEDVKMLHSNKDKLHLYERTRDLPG
Nature of the assay: SPR; method not named in Example 2.

Assay [3] deals with T2, soluble human RGMa. The assay is described as follows: SPR (BIAcore).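 Note: Anti-HJV antibodies tested for binding against soluble human RGMa by surface plasmon resonance on a BIAcore instrument.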
Method: Binding affinities of the anti-HJV antibodies to soluble human RGMa, Rat RGMa and human RGMc were measured by BIAcore analysis.
Assay [4] concerns the target T1, soluble human RGMc. The assay is described as follows: SPR (BIAcore), soluble hRGMc; summary table.
A further assay addresses T3, Cyno RGMc (cyno, UniProt A0A2K5TJX5 36-401).
T3 sequence: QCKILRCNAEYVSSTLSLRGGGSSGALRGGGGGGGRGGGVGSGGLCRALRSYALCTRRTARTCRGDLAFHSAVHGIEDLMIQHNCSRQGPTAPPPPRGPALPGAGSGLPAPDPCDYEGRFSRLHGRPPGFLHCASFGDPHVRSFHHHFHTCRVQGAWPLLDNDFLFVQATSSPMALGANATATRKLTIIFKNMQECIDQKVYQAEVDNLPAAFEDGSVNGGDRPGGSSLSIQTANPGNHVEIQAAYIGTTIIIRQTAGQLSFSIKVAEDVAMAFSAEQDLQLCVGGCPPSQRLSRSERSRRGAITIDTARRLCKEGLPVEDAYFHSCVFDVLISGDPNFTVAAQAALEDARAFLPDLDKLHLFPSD
Nature of the assay: SPR (BIAcore), RGM antigen in solution.

The target in the next assay is T4, Human RGMb (human, UniProt Q6NW40 46-413, limits assumed).
T4 construct: also called repulsive guidance molecule B
T4 sequence (looked up): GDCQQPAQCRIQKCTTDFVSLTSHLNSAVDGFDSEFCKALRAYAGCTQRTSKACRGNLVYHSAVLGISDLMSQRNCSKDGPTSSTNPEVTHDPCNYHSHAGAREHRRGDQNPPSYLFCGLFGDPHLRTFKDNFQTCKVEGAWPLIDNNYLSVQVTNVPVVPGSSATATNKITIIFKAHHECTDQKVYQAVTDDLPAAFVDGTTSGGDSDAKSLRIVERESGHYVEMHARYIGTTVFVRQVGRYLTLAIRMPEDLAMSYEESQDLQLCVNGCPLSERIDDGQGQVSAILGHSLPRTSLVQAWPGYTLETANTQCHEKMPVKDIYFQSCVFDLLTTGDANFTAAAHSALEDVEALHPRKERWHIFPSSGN
The assay is described as follows: SPR (BIAcore), RGM antigen in solution.

Another assay deals with T5, soluble rat RGMa (rat, UniProt D4A188 48-421).
T5 construct: Soluble antigen in BIAcore
T5 sequence: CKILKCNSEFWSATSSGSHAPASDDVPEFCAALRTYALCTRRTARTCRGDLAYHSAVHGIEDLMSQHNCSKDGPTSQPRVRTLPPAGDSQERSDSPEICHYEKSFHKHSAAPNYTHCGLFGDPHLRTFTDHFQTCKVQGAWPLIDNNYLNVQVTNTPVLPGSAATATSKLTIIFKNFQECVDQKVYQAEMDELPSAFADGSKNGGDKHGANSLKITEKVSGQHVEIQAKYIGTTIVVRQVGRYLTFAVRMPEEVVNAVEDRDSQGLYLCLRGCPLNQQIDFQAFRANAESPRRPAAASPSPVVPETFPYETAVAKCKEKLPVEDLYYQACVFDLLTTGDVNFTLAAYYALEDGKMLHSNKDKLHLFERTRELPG
Nature of the assay: SPR (BIAcore), RGM antigen in solution.

The target in assay [5] is T6, membrane-bound human RGMc (human, UniProt Q6ZVN8 36-400).
T6 sequence: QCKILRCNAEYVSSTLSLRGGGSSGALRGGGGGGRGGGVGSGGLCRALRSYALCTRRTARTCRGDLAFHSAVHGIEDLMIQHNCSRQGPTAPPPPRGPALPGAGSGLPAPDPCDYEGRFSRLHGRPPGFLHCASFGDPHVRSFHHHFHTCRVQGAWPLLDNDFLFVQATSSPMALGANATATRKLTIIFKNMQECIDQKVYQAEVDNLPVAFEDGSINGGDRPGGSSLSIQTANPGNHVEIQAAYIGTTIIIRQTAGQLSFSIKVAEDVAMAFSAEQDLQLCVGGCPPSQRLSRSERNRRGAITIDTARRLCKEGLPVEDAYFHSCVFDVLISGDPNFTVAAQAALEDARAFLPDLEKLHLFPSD
The assay is described as follows: cell-based or functional assay.

Assay [6] has as its target T6, membrane-bound human RGMc. The assay is described as follows: cell-based or functional assay. This is another data set of the same source.

B1: hHA-008 (antibody, human IgG1, kappa, L234A L235A)
heavy: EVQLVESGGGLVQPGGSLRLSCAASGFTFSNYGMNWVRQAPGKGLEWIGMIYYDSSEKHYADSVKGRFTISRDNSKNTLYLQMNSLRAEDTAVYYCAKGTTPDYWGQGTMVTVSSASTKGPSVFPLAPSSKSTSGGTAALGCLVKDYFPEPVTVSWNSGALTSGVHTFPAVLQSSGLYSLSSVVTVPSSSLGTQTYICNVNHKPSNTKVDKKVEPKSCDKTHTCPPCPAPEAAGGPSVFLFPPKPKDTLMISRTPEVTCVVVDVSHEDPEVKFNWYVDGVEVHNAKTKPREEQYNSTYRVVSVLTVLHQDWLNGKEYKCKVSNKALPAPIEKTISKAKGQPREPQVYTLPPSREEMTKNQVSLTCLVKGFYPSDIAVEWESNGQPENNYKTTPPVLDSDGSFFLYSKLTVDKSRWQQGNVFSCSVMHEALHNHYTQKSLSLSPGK
light: DVVLTQSPLSLPVTLGQPASISCRSSQSLEESDGYTFLHWFQQRPGQSPRLLIYEVSTRFSGVPDRFSGSGSGTDFTLKISRVEAEDVGVYYCFQATHDPLTFGQGTKLEIKRTVAAPSVFIFPPSDEQLKSGTASVVCLLNNFYPREAKVQWKVDNALQSGNSQESVTEQDSKDSTYSLSSTLTLSKADYEKHKVYACEVTHQGLSSPVTKSFNRGEC
notes: hIgG1 L234A, L235A, kappa; also called hHA-008 (hIgG1mut(LALA)/k)
In the case of B1, the Kd with soluble human RGMc [1] is 0.11 nM; in the assay with soluble human RGMa [2], 0.078 nM; in the assay with soluble human RGMa [3] it was 0.031 nM; in the assay with soluble human RGMc [4], 0.105 nM; with Cyno RGMc it was 0.12 nM; with soluble rat RGMa, 0.12 nM. In addition, the dissociation rate constant (koff) in the assay with soluble human RGMc [1] is 0.00032 s⁻¹; in the assay with soluble human RGMa [2] it was 4.2e-05 s⁻¹; with soluble human RGMa [3], 2.7e-05 s⁻¹; with soluble human RGMc [4], 0.00039 s⁻¹; with Cyno RGMc it was 0.00031 s⁻¹; with soluble rat RGMa, 3.6e-05 s⁻¹. Moreover, the kon with soluble human RGMc [1] turned out to be 3e+06 M⁻¹ s⁻¹; in the assay with soluble human RGMa [2], 540000 M⁻¹ s⁻¹; in the assay with soluble human RGMa [3], 870000 M⁻¹ s⁻¹; with soluble human RGMc [4] it was 3.95e+06 M⁻¹ s⁻¹; with Cyno RGMc, 2.6e+06 M⁻¹ s⁻¹; with soluble rat RGMa it was 310000 M⁻¹ s⁻¹. Also, the binding result in the assay with Human RGMb is “no binding”. Further, the “IC50 (nM), BMP reporter assay for RGMc (BRE-Luc, HEK293)” value in assay [5] was determined as 0.377 nM. The “Potency on membrane hRGMc (RGMc/BMP reporter assay), IC50” value in [6] is 0.37 nM.
